The Human Domainome abundance scans (Beltran et al. 2025)
± gives the uncertainty stated by the source.

B1: Integrator complex subunit 12, residues 155 to 213; numbered along this chain, Q96CB8 (parent)
chain: AMEMGLACVVCRQMMVASGNQLVECQECHNLYHRDCHKPQVTDKEANDPRLVWYCARCT

Variants of: B1
Experiment: abundance fitness (aPCA) (normalised: wild type 0, dead -1); higher = more abundant; growth selection in yeast, the domain comes from the species named
Conditions: Homo sapiens

In order of rising abundance fitness:
1. H33W  -1.21 ± 0.14
2. H33M  -0.882 ± 0.084
3. H33I  -0.873 ± 0.047
4. H33L  -0.869 ± 0.044
5. H33T  -0.85 ± 0.057
6. C36W  -0.843 ± 0.079
7. C36D  -0.802 ± 0.051
8. H33Y  -0.795 ± 0.047
9. C36K  -0.79 ± 0.078
10. C36F  -0.775 ± 0.045
11. H33Q  -0.769 ± 0.084
12. H33V  -0.767 ± 0.037
13. C36L  -0.763 ± 0.043
14. C36V  -0.73 ± 0.037
15. C36Y  -0.727 ± 0.043
16. H33S  -0.721 ± 0.036
17. H33P  -0.72 ± 0.051
18. C36S  -0.716 ± 0.036
19. C36E  -0.696 ± 0.066
20. C36I  -0.691 ± 0.039
21. C36Q  -0.672 ± 0.077
22. C36A  -0.671 ± 0.043
23. H33G  -0.668 ± 0.037
24. H37P  -0.645 ± 0.054
25. H33R  -0.638 ± 0.043
26. C36M  -0.63 ± 0.064
27. C36R  -0.619 ± 0.039
28. C36N  -0.615 ± 0.044
29. H33A  -0.609 ± 0.039
30. C36G  -0.606 ± 0.033
31. C36T  -0.588 ± 0.046
32. C36P  -0.585 ± 0.058
33. H33N  -0.584 ± 0.04
34. H33D  -0.547 ± 0.039
35. H33K  -0.542 ± 0.068
36. C36H  -0.516 ± 0.046
37. H33E  -0.483 ± 0.059
38. H37K  -0.379 ± 0.069
39. P39W  -0.363 ± 0.049
40. P39H  -0.347 ± 0.12
41. H37R  -0.315 ± 0.038
42. P39A  -0.313 ± 0.056
43. P39F  -0.308 ± 0.11
44. V41D  -0.297 ± 0.083
45. H37W  -0.297 ± 0.058
46. P39Y  -0.295 ± 0.12
47. P39L  -0.294 ± 0.045
48. T42I  -0.281 ± 0.058
49. P39G  -0.28 ± 0.041
50. P39R  -0.279 ± 0.038
51. D48C  -0.265 ± 0.12
52. P39V  -0.257 ± 0.049
53. D48F  -0.254 ± 0.24
54. H37Y  -0.249 ± 0.036
55. P39M  -0.248 ± 0.064
56. E45W  -0.248 ± 0.055
57. T42F  -0.24 ± 0.094
58. P39S  -0.228 ± 0.049
59. H37F  -0.226 ± 0.033
60. H37E  -0.223 ± 0.08
61. N47Y  -0.223 ± 0.08
62. E45P  -0.222 ± 0.078
63. E45G  -0.222 ± 0.049
64. D35P  -0.215 ± 0.044
65. E45I  -0.213 ± 0.1
66. V41P  -0.211 ± 0.065
67. E45R  -0.207 ± 0.042
68. N47P  -0.2 ± 0.056
69. T42W  -0.198 ± 0.048
70. E45M  -0.193 ± 0.068
71. E45F  -0.192 ± 0.086
72. D48I  -0.187 ± 0.14
73. P39I  -0.184 ± 0.1
74. H37Q  -0.176 ± 0.085
75. R34C  -0.17 ± 0.087
76. N47A  -0.166 ± 0.053
77. T42Y  -0.165 ± 0.1
78. N47F  -0.162 ± 0.052
79. N47W  -0.154 ± 0.064
80. T42M  -0.153 ± 0.051
81. H37G  -0.148 ± 0.033
82. H37L  -0.145 ± 0.033
83. H37C  -0.144 ± 0.034
84. H37N  -0.144 ± 0.035
85. P39N  -0.144 ± 0.11
86. D48L  -0.138 ± 0.047
87. T42V  -0.136 ± 0.044
88. E45H  -0.134 ± 0.091
89. E45C  -0.111 ± 0.074
90. N47I  -0.11 ± 0.081
91. T42D  -0.107 ± 0.071
92. N47M  -0.105 ± 0.056
93. H37T  -0.101 ± 0.042
94. N47Q  -0.092 ± 0.053
95. D35W  -0.089 ± 0.044
96. T42H  -0.089 ± 0.069
97. H37S  -0.088 ± 0.031
98. D35K  -0.087 ± 0.057
99. P39T  -0.087 ± 0.056
100. E45A  -0.087 ± 0.044
101. D35V  -0.083 ± 0.032
102. R34H  -0.083 ± 0.067
103. D48G  -0.083 ± 0.045
104. D48H  -0.081 ± 0.15
105. D35I  -0.079 ± 0.035
106. H37V  -0.075 ± 0.032
107. N47T  -0.075 ± 0.05
108. D35Y  -0.074 ± 0.034
109. E45N  -0.074 ± 0.1
110. N47V  -0.066 ± 0.048
111. T42E  -0.066 ± 0.046
112. T42Q  -0.064 ± 0.051
113. R34A  -0.054 ± 0.062
114. D48E  -0.054 ± 0.052
115. D35N  -0.052 ± 0.035
116. E45T  -0.052 ± 0.054
117. N47L  -0.05 ± 0.037
118. H37A  -0.048 ± 0.035
119. E45L  -0.048 ± 0.049
120. N47K  -0.046 ± 0.066
121. D35C  -0.045 ± 0.033
122. T42N  -0.041 ± 0.053
123. E45V  -0.038 ± 0.048
124. D35S  -0.034 ± 0.031
125. D35R  -0.029 ± 0.034
126. D48K  -0.027 ± 0.056
127. T42A  -0.024 ± 0.04
128. R34I  -0.019 ± 0.055
129. R34V  -0.018 ± 0.051
130. R34E  -0.016 ± 0.12
131. E45Q  -0.014 ± 0.073
132. N47C  -0.013 ± 0.095
133. T42K  -0.01 ± 0.047
134. H37I  -0.007 ± 0.035
135. N47E  -0.005 ± 0.054
136. H37D  -0.002 ± 0.035
137. T42G  0 ± 0.038
138. R34M  0.005 ± 0.057
139. R34T  0.005 ± 0.064
140. E45D  0.005 ± 0.12
141. E45Y  0.005 ± 0.094
142. R34S  0.009 ± 0.052
143. N47H  0.011 ± 0.073
144. D35G  0.013 ± 0.033
145. H33C  0.013 ± 0.035
146. R34F  0.016 ± 0.076
147. N47G  0.02 ± 0.053
148. D35T  0.023 ± 0.038
149. H37M  0.031 ± 0.065
150. N47S  0.035 ± 0.041
151. R34L  0.037 ± 0.045
152. T42P  0.039 ± 0.041
153. D35M  0.042 ± 0.05
154. P39C  0.045 ± 0.09
155. D35A  0.054 ± 0.036
156. R34Y  0.058 ± 0.073
157. D35L  0.06 ± 0.032
158. R34G  0.066 ± 0.086
159. R34P  0.067 ± 0.08
160. T42C  0.069 ± 0.074
161. D35H  0.071 ± 0.036
162. E45K  0.073 ± 0.075
163. R34Q  0.082 ± 0.066
164. D35Q  0.094 ± 0.054
165. D35E  0.107 ± 0.051
166. R34W  0.143 ± 0.1
167. R34K  0.229 ± 0.068
